pKd: −log10 of the molar value.
Columns and labels:
[1] = molecular target: EV-D68 mature virion, strain US/MO/14-18947 (clade B) (enterovirus D68 strain US/MO/14-18947)
[2] = molecular target: EV-D68 mature virion, strain US/MO/14-18947 (clade B) (enterovirus D68 strain US/MO/14-18947); experiment: BLI

Row | Substance | IC50 of neutralization of EV-D68 strain 18947 on RD cells (cell viability, CellTiter-Glo) [1] | neutralization concentration (lowest antibody concentration that fully inhibits cytopathic effect) against strain 18947 [1] | pKd [2] | koff [2]
1 | anti-EV-D68 MAb 8F12 (murine, IgG2b) (antibody) | 4 ng/mL | 0.06 µg/mL |  | 
2 | anti-EV-D68 MAb 8F12 (murine, IgG2b) (from UniProt P01867) |  |  | 9.04 | 0.00035 s⁻¹

— PMC8131599
